Fewer inactive variants are shown than the library holds.

23 sequences from the supplement of paper PMC9233669 can be followed below.

One data set deals with biotinyl-Phe-oxazolone. The data set can be described thus: self-aminoacylation, catalytic enhancement (BFO) (fold over background); higher = more active; k-Seq, kA / k0A0; sequences stand for … in GGGAAUGGAUCCACAUCUACGAAUUC…UUCACUGCAGACUUGACGAAGCUG
An outline of the steps: (§1)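 Mutagenized RNA pools with a 21-nt variable region (0.43 μM) were reacted with each biotinyl-aminoacyl-oxazolone at 2–1250 μM for 90 minutes at room temperature, in 50 μL HEPES/NaCl/KCl/MgCl2/CaCl2 buffer containing 5% acetonitrile at pH 6.9–7.0. RNA captured on streptavidin was quantified by triplicate qPCR and by Illumina sequencing. The fraction reacted for each sequence was fit to a pseudo-first-order model with bootstrapping, and catalytic enhancement is the median kA divided by the uncatalyzed rate, taken as the low-activity peak of a bimodal Gaussian fit.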

The subject of a further data set is biotinyl-Ile-oxazolone. As to the kind of experiment: self-aminoacylation, catalytic enhancement (BIO) (fold over background); higher = more active; k-Seq, kA / k0A0; sequences stand for … in GGGAAUGGAUCCACAUCUACGAAUUC…UUCACUGCAGACUUGACGAAGCUG
In outline: as §1

A further data set relates to biotinyl-Trp-oxazolone. The data set can be described thus: self-aminoacylation, catalytic enhancement (BWO) (fold over background); higher = more active; k-Seq, kA / k0A0; sequences stand for … in GGGAAUGGAUCCACAUCUACGAAUUC…UUCACUGCAGACUUGACGAAGCUG
An outline of the steps:
as §1

The next data set has as its system biotinyl-Met-oxazolone. The data set can be described thus: self-aminoacylation, catalytic enhancement (BMO) (fold over background); higher = more active; k-Seq, kA / k0A0; sequences stand for … in GGGAAUGGAUCCACAUCUACGAAUUC…UUCACUGCAGACUUGACGAAGCUG
An outline of the steps: as §1

Another data set has as its system biotinyl-Leu-oxazolone. The data set can be described thus: self-aminoacylation, catalytic enhancement (BLO) (fold over background); higher = more active; k-Seq, kA / k0A0; sequences stand for … in GGGAAUGGAUCCACAUCUACGAAUUC…UUCACUGCAGACUUGACGAAGCUG
In outline:
as §1

A further data set relates to biotinyl-Val-oxazolone. As to the kind of experiment: self-aminoacylation, catalytic enhancement (BVO) (fold over background); higher = more active; k-Seq, kA / k0A0; sequences stand for … in GGGAAUGGAUCCACAUCUACGAAUUC…UUCACUGCAGACUUGACGAAGCUG
An outline of the steps:
as §1

Take “AUUCACCUAGGUCAGCGCGUG [Fam2.2 aminoacylation ribozyme variant]”: the self-aminoacylation in the data set with biotinyl-Phe-oxazolone amounted to 71.2; in the data set with biotinyl-Ile-oxazolone, 6.84; in the data set with biotinyl-Trp-oxazolone, 11; in the data set on biotinyl-Met-oxazolone it was 10.9; in the data set with biotinyl-Leu-oxazolone, 14.9; with biotinyl-Val-oxazolone, 6.75.
As for “AUUCCCGUGGUCAUCGAGUGA [Fam2.1 aminoacylation ribozyme variant]”, the self-aminoacylation in the data set with biotinyl-Phe-oxazolone is 63.3; with biotinyl-Ile-oxazolone it was 5.17; with biotinyl-Trp-oxazolone, 11.3; in the data set with biotinyl-Met-oxazolone, 8.45; with biotinyl-Leu-oxazolone it was 9.05; in the data set with biotinyl-Val-oxazolone, 5.81.
“AAGCUUGCUAAUAGUCGCGAG [Fam3.1 aminoacylation ribozyme variant]”: the self-aminoacylation was 26.9 with biotinyl-Phe-oxazolone; 2.66 in the data set with biotinyl-Ile-oxazolone; 3.85 in the data set on biotinyl-Trp-oxazolone; 3.36 with biotinyl-Met-oxazolone; 2.66 in the data set on biotinyl-Leu-oxazolone; 1.9 in the data set with biotinyl-Val-oxazolone.
In the case of “AUUGACAUAGGUCAUCGGGUG [Fam2.2 aminoacylation ribozyme variant]”, the self-aminoacylation is 48.4 in the data set on biotinyl-Phe-oxazolone; 5.14 in the data set with biotinyl-Ile-oxazolone; 8.04 in the data set with biotinyl-Trp-oxazolone; 7.3 in the data set on biotinyl-Met-oxazolone; 8.84 in the data set with biotinyl-Leu-oxazolone; 4.42 with biotinyl-Val-oxazolone.
Take “UAGUCUGCUAAUAGUCGCAAG [Fam3.1 aminoacylation ribozyme variant]”: the self-aminoacylation in the data set with biotinyl-Phe-oxazolone was 32.7; in the data set with biotinyl-Ile-oxazolone it was 2.01; with biotinyl-Trp-oxazolone it was 9.92; with biotinyl-Met-oxazolone, 2.17; in the data set with biotinyl-Leu-oxazolone, 1.83; in the data set on biotinyl-Val-oxazolone, 1.81.
As to “CCAUACUUCAAGCAAGCGGUC [Fam1B.1 aminoacylation ribozyme variant]”, the self-aminoacylation with biotinyl-Phe-oxazolone turned out to be 0.737; with biotinyl-Ile-oxazolone, 1.09; in the data set on biotinyl-Trp-oxazolone, 0.726; in the data set on biotinyl-Met-oxazolone it was 0.775; with biotinyl-Leu-oxazolone, 0.875; in the data set on biotinyl-Val-oxazolone, 1.03.
Turning to “CUACUUCAAAAAAUCGGACUG [Fam1A.1 aminoacylation ribozyme variant]”, the self-aminoacylation turned out to be 3.47 with biotinyl-Phe-oxazolone; 0.922 in the data set with biotinyl-Ile-oxazolone; 2.3 with biotinyl-Trp-oxazolone; 0.652 in the data set with biotinyl-Met-oxazolone; 0.733 with biotinyl-Leu-oxazolone; 0.539 in the data set on biotinyl-Val-oxazolone.
As to “CUACUUCACUCAAUCGGUCUG [Fam1A.1 aminoacylation ribozyme variant]”, the self-aminoacylation with biotinyl-Phe-oxazolone stood at 0.865; in the data set on biotinyl-Ile-oxazolone, 0.732; in the data set on biotinyl-Trp-oxazolone, 0.651; in the data set with biotinyl-Met-oxazolone, 0.72; with biotinyl-Leu-oxazolone, 0.719; in the data set on biotinyl-Val-oxazolone, 0.934.
As for “CAGUUUGAUAAUAGUCGCAAG [Fam3.1 aminoacylation ribozyme variant]”, the self-aminoacylation in the data set with biotinyl-Phe-oxazolone was 1.89; in the data set with biotinyl-Ile-oxazolone, 1.4; in the data set with biotinyl-Trp-oxazolone, 1.26; with biotinyl-Met-oxazolone it was 1.32; in the data set with biotinyl-Leu-oxazolone, 1.34; in the data set on biotinyl-Val-oxazolone it was 1.54.
As to “CAACACUUGAAGCAAUCGGUC [Fam1B.1 aminoacylation ribozyme variant]”, the self-aminoacylation worked out at 0.601 in the data set on biotinyl-Phe-oxazolone; 0.911 with biotinyl-Ile-oxazolone; 0.696 in the data set with biotinyl-Trp-oxazolone; 0.731 in the data set with biotinyl-Met-oxazolone; 0.842 with biotinyl-Leu-oxazolone; 0.828 with biotinyl-Val-oxazolone.
As for “AUUCACCUAGGUGAUCCGGUG [Fam2.2 aminoacylation ribozyme variant]”, the self-aminoacylation with biotinyl-Phe-oxazolone is 22.1; with biotinyl-Ile-oxazolone, 3.26; with biotinyl-Trp-oxazolone it was 3.31; in the data set with biotinyl-Met-oxazolone, 5.12; in the data set with biotinyl-Leu-oxazolone it was 4.06; with biotinyl-Val-oxazolone, 3.03.
Consider “CUUACCCUGGUCAUCUAGUGA [Fam2.1 aminoacylation ribozyme variant]”, for which the self-aminoacylation in the data set on biotinyl-Phe-oxazolone stood at 29.7; in the data set with biotinyl-Ile-oxazolone, 3.75; with biotinyl-Trp-oxazolone, 10.4; in the data set on biotinyl-Met-oxazolone it was 7.9; in the data set on biotinyl-Leu-oxazolone, 8.12; with biotinyl-Val-oxazolone, 3.89.
“CCACACUUCAAGCAACCGGAC [Fam1B.1 aminoacylation ribozyme variant]”: the self-aminoacylation in the data set on biotinyl-Phe-oxazolone came out at 0.734; in the data set on biotinyl-Ile-oxazolone it was 1.15; in the data set with biotinyl-Trp-oxazolone, 0.606; in the data set on biotinyl-Met-oxazolone, 0.839; with biotinyl-Leu-oxazolone, 0.602; in the data set on biotinyl-Val-oxazolone, 1.07.
Consider “CUACUUCUAACAAUCGAUCUG [Fam1A.1 aminoacylation ribozyme variant]”, for which the self-aminoacylation worked out at 0.698 in the data set with biotinyl-Phe-oxazolone; 0.674 with biotinyl-Ile-oxazolone; 0.416 in the data set with biotinyl-Trp-oxazolone; 0.522 in the data set on biotinyl-Met-oxazolone; 0.509 in the data set on biotinyl-Leu-oxazolone; 0.67 in the data set on biotinyl-Val-oxazolone.
With “AUUACCCUGGUGGUCGAGUGA [Fam2.1 aminoacylation ribozyme variant]”, the self-aminoacylation in the data set with biotinyl-Phe-oxazolone was 12.8; in the data set with biotinyl-Ile-oxazolone, 1.47; in the data set with biotinyl-Trp-oxazolone, 1.83; with biotinyl-Met-oxazolone, 2.28; in the data set on biotinyl-Leu-oxazolone, 1.95; with biotinyl-Val-oxazolone, 1.61.
As to “AAGUAUGUUAAUAGUCGCAAG [Fam3.1 aminoacylation ribozyme variant]”, the self-aminoacylation in the data set on biotinyl-Phe-oxazolone came out at 1.49; in the data set on biotinyl-Ile-oxazolone, 1.44; in the data set on biotinyl-Trp-oxazolone it was 1.38; in the data set with biotinyl-Met-oxazolone, 1.4; in the data set with biotinyl-Leu-oxazolone, 1.44; in the data set on biotinyl-Val-oxazolone it was 1.24.
For the sequence “CGACUUCAAACAAUCGGUCAG [Fam1A.1 aminoacylation ribozyme variant]”, the self-aminoacylation in the data set on biotinyl-Phe-oxazolone stood at 8.58; in the data set with biotinyl-Ile-oxazolone it was 0.915; with biotinyl-Trp-oxazolone, 4.08; in the data set with biotinyl-Met-oxazolone, 0.707; with biotinyl-Leu-oxazolone, 0.772; with biotinyl-Val-oxazolone, 0.883.
For the sequence “CCAAACUUCAAGCAUUCGGUC [Fam1B.1 aminoacylation ribozyme variant]”, the self-aminoacylation turned out to be 1.96 in the data set with biotinyl-Phe-oxazolone; 2.1 with biotinyl-Ile-oxazolone; 1.75 with biotinyl-Trp-oxazolone; 1.83 with biotinyl-Met-oxazolone; 1.84 in the data set on biotinyl-Leu-oxazolone; 1.86 with biotinyl-Val-oxazolone.
“CUACUUCAAACAAUCCGUCAG [Fam1A.1 aminoacylation ribozyme variant]”: the self-aminoacylation in the data set with biotinyl-Phe-oxazolone is 0.797; in the data set on biotinyl-Ile-oxazolone it was 0.951; with biotinyl-Trp-oxazolone, 0.643; with biotinyl-Met-oxazolone it was 0.684; in the data set on biotinyl-Leu-oxazolone, 0.613; in the data set with biotinyl-Val-oxazolone, 0.934.
For the sequence “CUUACCCCGGUCAUCGAGUGA [Fam2.1 aminoacylation ribozyme variant]”, the self-aminoacylation in the data set on biotinyl-Phe-oxazolone amounted to 19.8; in the data set on biotinyl-Ile-oxazolone it was 3.44; in the data set with biotinyl-Trp-oxazolone, 6.76; with biotinyl-Met-oxazolone it was 6.51; with biotinyl-Leu-oxazolone, 6.2; with biotinyl-Val-oxazolone, 3.92.
As to “AGUCCCCUAGGUCAUCGGGUG [Fam2.2 aminoacylation ribozyme variant]”, the self-aminoacylation stood at 93.9 with biotinyl-Phe-oxazolone; 8.61 in the data set with biotinyl-Ile-oxazolone; 11.4 in the data set on biotinyl-Trp-oxazolone; 12 in the data set with biotinyl-Met-oxazolone; 16.9 in the data set on biotinyl-Leu-oxazolone; 7.97 in the data set on biotinyl-Val-oxazolone.
“AUUACCUUGGUCAUCAAGUGA [Fam2.1 aminoacylation ribozyme variant]”: the self-aminoacylation was 3.79 in the data set on biotinyl-Phe-oxazolone; 1.97 in the data set on biotinyl-Ile-oxazolone; 4.02 with biotinyl-Trp-oxazolone; 3.32 with biotinyl-Met-oxazolone; 3.54 with biotinyl-Leu-oxazolone; 1.92 in the data set on biotinyl-Val-oxazolone.
As for “CUACUUCAAACAAUCGGUCCA [Fam1A.1 aminoacylation ribozyme variant]”, the self-aminoacylation stood at 1.79 in the data set with biotinyl-Phe-oxazolone; 0.753 in the data set on biotinyl-Ile-oxazolone; 0.907 in the data set on biotinyl-Trp-oxazolone; 0.654 in the data set on biotinyl-Met-oxazolone; 0.633 in the data set with biotinyl-Leu-oxazolone; 0.757 in the data set on biotinyl-Val-oxazolone.
